{
  "source": "patent US20160046943",
  "about": "“Interferon Production Using Short RNA Duplexes” (YALE UNIVERSITY, published 2016)",
  "key": {"[1]": {"biological_target": "T1, RIG-I (full length) (Homo sapiens, UniProt O95786 O95786:1-925)", "T1 sequence": "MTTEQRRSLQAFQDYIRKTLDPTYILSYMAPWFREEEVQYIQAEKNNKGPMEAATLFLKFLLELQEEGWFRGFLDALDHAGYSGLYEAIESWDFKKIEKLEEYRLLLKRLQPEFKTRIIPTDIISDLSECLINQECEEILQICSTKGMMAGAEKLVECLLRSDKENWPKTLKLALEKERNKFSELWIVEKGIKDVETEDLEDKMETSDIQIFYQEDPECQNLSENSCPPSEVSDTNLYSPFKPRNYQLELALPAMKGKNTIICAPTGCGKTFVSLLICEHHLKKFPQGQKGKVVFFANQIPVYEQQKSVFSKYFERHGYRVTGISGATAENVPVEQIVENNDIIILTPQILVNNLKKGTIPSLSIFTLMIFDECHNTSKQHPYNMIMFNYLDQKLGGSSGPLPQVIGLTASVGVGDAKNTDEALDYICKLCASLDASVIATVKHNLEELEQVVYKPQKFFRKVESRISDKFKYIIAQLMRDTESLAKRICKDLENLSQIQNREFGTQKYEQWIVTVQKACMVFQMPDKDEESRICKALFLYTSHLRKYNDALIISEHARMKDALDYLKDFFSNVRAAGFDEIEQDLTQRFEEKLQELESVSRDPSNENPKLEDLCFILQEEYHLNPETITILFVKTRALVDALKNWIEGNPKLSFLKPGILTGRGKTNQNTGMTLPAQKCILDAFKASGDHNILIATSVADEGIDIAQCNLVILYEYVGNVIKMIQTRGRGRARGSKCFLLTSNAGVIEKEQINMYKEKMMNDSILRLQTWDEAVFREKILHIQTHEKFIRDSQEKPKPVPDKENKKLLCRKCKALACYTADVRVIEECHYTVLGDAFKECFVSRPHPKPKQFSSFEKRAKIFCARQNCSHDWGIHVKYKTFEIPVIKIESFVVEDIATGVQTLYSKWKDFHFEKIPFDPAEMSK", "settings": "Km,RNA per estimated poly I:C strand, ATPase assay at 5 mM ATP"}, "[2]": {"biological_target": "T1, RIG-I (full length)", "parameters": "K half: unit not given here", "settings": "5'-OH"}, "[3]": {"biological_target": "T1, RIG-I (full length)", "assay": "Km,RNA, ATPase assay at 5 mM ATP; SD 1.5", "settings": "tags: pET-SUMO (His-SUMO vector, Ni-NTA purified), E. coli Rosetta II(DE3); palindromic blunt duplex", "method": "(§1) ATPase activity of RIG-I was measured with the NADH-coupled ATPase assay adapted from previously described protocols (Luo et al., 2011, Cell 147:409-422). Experiments were set up in 50 μl reaction volumes in 96 well format using Corning clear half-area flat bottom plates (#3695). Each 50 μl reaction contained 10 μl of 5×NADH enzyme buffer (1 mM NADH, 100 U of lactate dehydrogenase/mL, 500 U/mL of pyruvate kinase/mL, and 2.5 mM phosphoenolpyruvate), 5-10 nM of RIG-I, 5 μl of varying amounts of either RNA or ATP, and a remaining volume of 25 mM 3-(N-morpholino)propanesulfonic acid (MOPS) pH 7.4, 150 mM KCl, 2 mM DTT, and 0.1% Triton X-100. The rate of ATP hydrolysis was indirectly determined by monitoring the loss of NADH by reading the absorbance at 340 nm using a Biotek Synergy H1 plate reader.\n(§2) To more precisely define the minimal duplex length for enzymatic activation of RIG-I, the steady-state kinetic parameters for RIG-I activation by RNA hairpins and double-stranded duplexes ranging in size from 8 to 30 base pairs, was measured with and without a 5′triphosphate (RNAs listed in Table 2). […]"}, "[4]": {"biological_target": "T1, RIG-I (full length)", "assay": "Km,RNA (apparent binding constant), ATPase assay at 5 mM ATP, 5 nM RIG-I, MOPS pH 7.4, 150 mM KCl; SD 0.20", "settings": "tags: pET-SUMO (His-SUMO vector, Ni-NTA purified), E. coli Rosetta II(DE3); palindromic blunt duplex", "method": "as §1, §2"}, "[5]": {"biological_target": "T1, RIG-I (full length)", "assay": "Km,RNA, ATPase assay at 5 mM ATP; SD 0.20", "settings": "tags: pET-SUMO (His-SUMO vector, Ni-NTA purified), E. coli Rosetta II(DE3); palindromic blunt duplex", "method": "as §1, §2"}, "[6]": {"biological_target": "T1, RIG-I (full length)", "assay": "Km,RNA, ATPase assay at 5 mM ATP; SD 1.0", "settings": "tags: pET-SUMO (His-SUMO vector, Ni-NTA purified), E. coli Rosetta II(DE3)", "method": "as §1\nTo more precisely define the minimal duplex length for enzymatic activation of RIG-I, the steady-state kinetic parameters for RIG-I activation by RNA hairpins and double-stranded duplexes ranging in size from 8 to 30 base pairs, was measured with and without a 5′triphosphate (RNAs listed in Table 2). In order to evaluate the respective roles of ATP and RNA in activation of the RIG-I:RNA complex, the Michaelis constant for ATP (K_{m,ATP}) at saturating RNA (500 nM) and the Michaelis constant for RNA (K_{m,RNA}) at saturating ATP (5 mM) was measured for each RNA construct (kcat, K_{m,ATP} and K_{m,RNA} summary in Table 4)."}, "[7]": {"biological_target": "T1, RIG-I (full length)", "assay": "Km,RNA, ATPase assay at 5 mM ATP; SD 3.4", "settings": "tags: pET-SUMO (His-SUMO vector, Ni-NTA purified), E. coli Rosetta II(DE3); palindromic blunt duplex", "method": "as §1, §2"}, "[8]": {"biological_target": "T1, RIG-I (full length)", "assay": "Km,RNA, ATPase assay at 5 mM ATP; SD 0.50", "settings": "tags: pET-SUMO (His-SUMO vector, Ni-NTA purified), E. coli Rosetta II(DE3)", "method": "as §1, §2"}, "[9]": {"biological_target": "T1, RIG-I (full length)", "assay": "Km,RNA, ATPase assay at 5 mM ATP; SD 1.1", "settings": "tags: pET-SUMO (His-SUMO vector, Ni-NTA purified), E. coli Rosetta II(DE3); palindromic blunt duplex", "method": "as §1, §2"}, "[10]": {"biological_target": "T1, RIG-I (full length)", "assay": "Km,RNA, ATPase assay at 5 mM ATP; SD 0.40", "settings": "tags: pET-SUMO (His-SUMO vector, Ni-NTA purified), E. coli Rosetta II(DE3); hairpin, 8 bp, UUCG tetraloop, blunt end", "method": "as §1, §2"}, "[11]": {"biological_target": "T1, RIG-I (full length)", "assay": "Km,RNA, ATPase assay at 5 mM ATP; SD 0.10", "settings": "tags: pET-SUMO (His-SUMO vector, Ni-NTA purified), E. coli Rosetta II(DE3); palindromic blunt duplex", "method": "as §1, §2"}, "[12]": {"biological_target": "T1, RIG-I (full length)", "assay": "Km,RNA, ATPase assay at 5 mM ATP; SD 1.3", "settings": "tags: pET-SUMO (His-SUMO vector, Ni-NTA purified), E. coli Rosetta II(DE3); palindromic blunt duplex", "method": "as §1, §2"}, "[13]": {"biological_target": "T1, RIG-I (full length)", "assay": "Km,RNA, ATPase assay at 5 mM ATP; SD 15", "settings": "tags: pET-SUMO (His-SUMO vector, Ni-NTA purified), E. coli Rosetta II(DE3); palindromic blunt duplex", "method": "as §1, §2"}},
  "note": "Like-named read-outs stand apart in the source and are kept apart here.",
  "data": [
    {"molecule": "poly I:C fraction A7 (~25 bp)", "values": [
      {"measurement": "K half", "setting": "[1]", "result": 20, "unit": "nM"}
    ]},
    {"molecule": "poly I:C fraction A1 (~500 bp)", "values": [
      {"measurement": "K half", "setting": "[1]", "result": 20, "unit": "nM"}
    ]},
    {"molecule": "LMW poly I:C", "values": [
      {"measurement": "activity", "setting": "[2]; ATPase kcat, Km,ATP 690 uM", "result": 4.9, "unit": "s⁻¹"},
      {"measurement": "K half", "setting": "[2]; Km,RNA, ATPase assay at 5 mM ATP, SD 1.1", "result": 2.4}
    ]},
    {"molecule": "GC10 (dsRNA, 5'-OH) RNA 1: GCGCGCGCGC RNA 2: GCGCGCGCGC", "values": [
      {"measurement": "apparent K (half saturation)", "setting": "[3]", "result": 24.4, "unit": "nM"}
    ]},
    {"molecule": "5'pppGC10 (dsRNA, 5'-triphosphate) RNA 1: GGCGCGCGCC RNA 2: GGCGCGCGCC", "values": [
      {"measurement": "apparent K (half saturation)", "setting": "[4]", "result": 1.16, "unit": "nM"}
    ]},
    {"molecule": "5'pppGC12 (dsRNA, 5'-triphosphate) RNA 1: GGCGCGCGCGCC RNA 2: GGCGCGCGCGCC", "values": [
      {"measurement": "apparent K (half saturation)", "setting": "[5]", "result": 2.33, "unit": "nM"}
    ]},
    {"molecule": "5'pppGC22 (dsRNA, 5'-triphosphate) RNA 1: GGCGCGCGCGCGCGCGCGCGCC RNA 2: GGCGCGCGCGCGCGCGCGCGCC", "values": [
      {"measurement": "apparent K (half saturation)", "setting": "[6]; palindromic blunt duplex, two 5'ppp ends", "result": 3.58, "unit": "nM"}
    ]},
    {"molecule": "5'ppp30L (ssRNA, 5'-triphosphate) RNA: GGAUCGAUCGAUCGAUCGGCAUCGAUCGGCUUCGGCCGAUCGAUGCCGAUCGAUCGAUCGAUCC", "values": [
      {"measurement": "apparent K (half saturation)", "setting": "[6]; hairpin, 30 bp, UUCG tetraloop, blunt end", "result": 10.8, "unit": "nM"}
    ]},
    {"molecule": "GC12 (dsRNA, 5'-OH) RNA 1: GCGCGCGCGCGC RNA 2: GCGCGCGCGCGC", "values": [
      {"measurement": "apparent K (half saturation)", "setting": "[6]; palindromic blunt duplex", "result": 13.1, "unit": "nM"}
    ]},
    {"molecule": "GC18 (dsRNA, 5'-OH) RNA 1: GCGCGCGCGCGCGCGCGC RNA 2: GCGCGCGCGCGCGCGCGC", "values": [
      {"measurement": "apparent K (half saturation)", "setting": "[7]", "result": 26.7, "unit": "nM"}
    ]},
    {"molecule": "GGACGUACGUUUCGACGUACGUCC (ssRNA, 5'-triphosphate)", "note": "[5'ppp10L]", "values": [
      {"measurement": "apparent K (half saturation)", "setting": "[8]; hairpin, 10 bp, UUCG tetraloop, blunt end", "result": 4.46, "unit": "nM"}
    ]},
    {"molecule": "GC22 (dsRNA, 5'-OH) RNA 1: GCGCGCGCGCGCGCGCGCGCGC RNA 2: GCGCGCGCGCGCGCGCGCGCGC", "values": [
      {"measurement": "apparent K (half saturation)", "setting": "[9]", "result": 27.3, "unit": "nM"}
    ]},
    {"molecule": "GGCGCGGCUUCGGCCGCGCC (ssRNA, 5'-triphosphate)", "note": "[5'ppp8L]", "values": [
      {"measurement": "apparent K (half saturation)", "setting": "[10]", "result": 5.16, "unit": "nM"}
    ]},
    {"molecule": "GGAUCGAUCGAUCGAUCGGCUUCGGCCGAUCGAUCGAUCGAUCC (ssRNA, 5'-triphosphate)", "note": "[5'ppp20L]", "values": [
      {"measurement": "apparent K (half saturation)", "setting": "[8]", "result": 10.1, "unit": "nM"}
    ]},
    {"molecule": "5'pppCM12 (dsRNA, 5'-triphosphate) RNA 1: GGACGUACGUCC RNA 2: GGACGUACGUCC", "values": [
      {"measurement": "apparent K (half saturation)", "setting": "[11]", "result": 2.62, "unit": "nM"}
    ]},
    {"molecule": "GC14 (dsRNA, 5'-OH) RNA 1: GCGCGCGCGCGCGC RNA 2: GCGCGCGCGCGCGC", "values": [
      {"measurement": "apparent K (half saturation)", "setting": "[12]", "result": 23.2, "unit": "nM"}
    ]},
    {"molecule": "GC8 (dsRNA, 5'-OH) RNA 1: GCGCGCGC RNA 2: GCGCGCGC", "values": [
      {"measurement": "apparent K (half saturation)", "setting": "[13]", "result": 91.4, "unit": "nM"}
    ]}
  ]
}
